Results on five molecules are retold here after paper PMC9482634, “Structural mechanism of tapasin-mediated MHC-I peptide loading in antigen presentation” (Nature Communications, 2022).

Details in all cases: both partners purified
The target in assay [1] is T1, human tapasin, lumenal domain (Gly1-Glu381), as used in the SPR experiments with the PaSta Fabs (Homo sapiens (human)).
T1 construct: human tapasin, lumenal domain, residues Gly1 to Glu381; the construct encodes the signal peptide too, the protein is secreted; for the SPR with the Fabs nothing is said; also called TPN; source: Drosophila S2 cells, purified from culture medium (chelate agarose, SEC, anion exchange)
T1 chain: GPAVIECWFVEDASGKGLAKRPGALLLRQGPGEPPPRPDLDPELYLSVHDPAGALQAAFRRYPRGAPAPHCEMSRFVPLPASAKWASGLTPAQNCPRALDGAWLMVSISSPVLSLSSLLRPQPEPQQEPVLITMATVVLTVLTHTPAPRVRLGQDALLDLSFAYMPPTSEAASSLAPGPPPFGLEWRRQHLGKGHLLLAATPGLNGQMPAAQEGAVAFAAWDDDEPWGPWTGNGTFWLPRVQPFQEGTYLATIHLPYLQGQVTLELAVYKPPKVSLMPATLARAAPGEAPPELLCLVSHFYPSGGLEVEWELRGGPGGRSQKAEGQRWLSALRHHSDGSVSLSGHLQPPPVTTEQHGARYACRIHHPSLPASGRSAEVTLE
Briefly: SPR; PaSta2 Fab (panel c) or PaSta1 Fab (panel d) immobilised on a CM5 chip, tapasin captured on it, the other Fab injected at 62.5 to 4000 nM; fit to a 1:1 binding model (BiaEval 3.1); 25 °C, 10 mM HEPES pH 7.4, 150 mM NaCl, 3 mM EDTA, 0.05% Surfactant P20, 30 µL/min. In general terms: In SPR one partner is held on a chip, and binding of the other changes the refractive index at the surface.

For assay [2], the target named is T2, human tapasin lumenal domain (Gly1-Glu381), state of the C-terminal tags not stated (human, UniProt O15533).
T2 construct: Tapasin as injected over the Fab surfaces in SPR and as added in the NMR experiments; source: Drosophila S2 cells, purified from the culture media (chelate agarose, SEC, anion exchange)
Briefly: SPR; Fab of PaSta1 or PaSta2 covalently coupled onto CM5 chips (about 200 RU); tapasin 0.06 µM to 4 µM injected; 25 °C; 10 mM HEPES pH 7.4, 150 mM NaCl, 3 mM EDTA, 0.05% Surfactant P20; 30 µL/min; 1:1 binding model.

Assay [3] concerns the target T3, human tapasin lumenal domain (Gly1-Glu381), BirA and 6X His sequences removed with 3C protease (human, UniProt O15533).
T3 construct: Residues of the 3C site may remain at the C-terminus after cleavage; source: Drosophila S2 cells, purified from the culture media (chelate agarose, SEC, anion exchange), treated with 3C protease; not shown: 6X HIS, C-terminal, cleaved
Briefly: crystal structure; tapasin–PaSta2 Fab complex, PDB 7TUG, 3.9 Å; crystals grown in 17% PEG 10000, 0.1 M Bis-Tris, pH 5.5, 0.1 M Am acetate.

For assay [4], the target named is parental HLA-B*44:05 refolded with hβ2m and the peptide … (human | ). Briefly: SPR; biotinylated tapasin captured (200 RU) on a streptavidin chip; MHC-I offered in graded concentrations (15.6 nM to 500 nM for B44:02–9mer and B44:05-T73C–6mer, 1 µM to 16 µM for B44:05–9mer); 25 °C; 10 mM HEPES pH 7.4, 150 mM NaCl, 3 mM EDTA, 0.05% Surfactant P20; 30 µL/min; global fit to a 1:1 binding model; n = 3.

Assay [5] deals with T3, human tapasin lumenal domain …. Put plainly: crystal structure; tapasin–PaSta1 Fab complex, PDB 7TUF, 2.8 Å; crystals grown in 10% PEG 4000, 0.1 M Hepes, pH 7.5.

B1: PaSta2 Fab (anti-tapasin monoclonal antibody PaSta2) (Fab, V domains shown)
VH: QVQLQQSGAELVRPGTSVKMSCKAAGYTFTNYWIGWIKQRPGHGLEWIGDIYPGGGYTNYNEKFKVKATLTADTSSVTAYMQLSSLTSEDSAIYYCTREGNYGFAYWGQGTLVTVSA
VL: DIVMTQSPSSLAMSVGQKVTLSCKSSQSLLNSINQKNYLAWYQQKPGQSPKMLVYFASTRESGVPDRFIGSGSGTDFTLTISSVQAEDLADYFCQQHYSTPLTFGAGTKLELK
notes: heavy chain of the Fab in PDB 7TUG and 7TUH (ends after the second cysteine of the hinge, then His6); light chain of the Fab in PDB 7TUG and 7TUH; also called Pt2; Pt2H; source: Expi293F, transfected, purified from culture supernatant (TALON, SEC)
As usually defined, the Kd is the constant that tells how readily two partners part at equilibrium. B1 yielded a Kd in assay [1] of 1.6 nM.

B2: Fab fragment of the anti-tapasin monoclonal antibody PaSta2 (Fab, V domains shown)
VH: QVQLQQSGAELVRPGTSVKMSCKAAGYTFTNYWIGWIKQRPGHGLEWIGDIYPGGGYTNYNEKFKVKATLTADTSSVTAYMQLSSLTSEDSAIYYCTREGNYGFAYWGQGTLVTVSA
VL: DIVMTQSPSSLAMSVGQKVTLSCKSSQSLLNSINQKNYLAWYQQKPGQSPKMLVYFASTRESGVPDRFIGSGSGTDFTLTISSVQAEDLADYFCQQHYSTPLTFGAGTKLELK
notes: H chain of PaSta2 in PDB 7TUG and 7TUH (deposited here); the Fab H chain ends after the second cysteine in the hinge region, followed by the 6X HIS tag; L chain of PaSta2 in PDB 7TUG and 7TUH (deposited here); also called PaSta2 (Fab); Pt2; source: Expi293F cells, transfected, purified from culture supernatants (TALON, SEC)
On to B2, for which the binding result in assay [2] and in assay [3] was “binds” each time.

B3: human tapasin lumenal domain (Gly1-Glu381), biotinylated at its C-terminal BirA sequence (domain or fragment, UniProt O15533 21-401, looked up)
chain: GPAVIECWFVEDASGKGLAKRPGALLLRQGPGEPPPRPDLDPELYLSVHDPAGALQAAFRRYPRGAPAPHCEMSRFVPLPASAKWASGLTPAQNCPRALDGAWLMVSISSPVLSLSSLLRPQPEPQQEPVLITMATVVLTVLTHTPAPRVRLGQDALLDLSFAYMPPTSEAASSLAPGPPPFGLEWRRQHLGKGHLLLAATPGLNGQMPAAQEGAVAFAAWDDDEPWGPWTGNGTFWLPTVQPFQEGTYLATIHLPYLQGQVTLELAVYKPPKVSLMPATLARAAPGEAPPELLCLVSHFYPSGGLEVEWELRGGPGGRSQKAEGQRWLSALRHHSDGSVSLSGHLQPPPVTTEQHGARYACRIHHPSLPASGRSAEVTLE
modifications: biotin at the C-terminal BirA sequence
notes: Tapasin as captured on the streptavidin chip for SPR; also called biotinylated tapasin; source: Drosophila S2 cells, purified from the culture media (chelate agarose, SEC, anion exchange)
On to B3, for which, in assay [4], the Kd is 1310 nM.

B4: PaSta1 Fab (anti-tapasin monoclonal antibody PaSta1) (Fab, V domains shown)
VH: DVQLQESGPGLVIPSQSLSLTCTVTGYSITTDYAWNWIRQFPGNRLEWMGYISSSGVTVYNPSLKSRISITRDTSKNQFFLQLISVTTEDTATYYCARRGYYRYDSIDYWGQGTTLTVSS
VL: QIVLSQSPAILSASPGEKVTMTCRATSSVSYIHWYQQKPGSSPKPWIYATSSLTSGVPVRFSGSGSGTSYSLTISRVEAEDAATYYCQQWSSNPPTFGGGTKLEIK
notes: heavy chain of the Fab in PDB 7TUF (ends after the second cysteine of the hinge, then His6); light chain of the Fab in PDB 7TUF; also called Pt1; Pt1H; source: Expi293F, transfected, purified from culture supernatant (TALON, SEC)
Consider B4, for which the affinity in assay [1], expressed as Kd, was 1.1 nM.

B5: Fab fragment of the anti-tapasin monoclonal antibody PaSta1 (Fab, V domains shown)
VH: DVQLQESGPGLVIPSQSLSLTCTVTGYSITTDYAWNWIRQFPGNRLEWMGYISSSGVTVYNPSLKSRISITRDTSKNQFFLQLISVTTEDTATYYCARRGYYRYDSIDYWGQGTTLTVSS
VL: QIVLSQSPAILSASPGEKVTMTCRATSSVSYIHWYQQKPGSSPKPWIYATSSLTSGVPVRFSGSGSGTSYSLTISRVEAEDAATYYCQQWSSNPPTFGGGTKLEIK
notes: H chain of PaSta1 in PDB 7TUF (deposited here); the Fab H chain ends after the second cysteine in the hinge region, followed by the 6X HIS tag; L chain of PaSta1 in PDB 7TUF (deposited here); The L chain search model had VL and Cκ; also called PaSta1 (Fab); Pt1; source: Expi293F cells, transfected, purified from culture supernatants (TALON, SEC)
Consider B5, for which the binding result in assay [2] and in assay [5] was “binds” throughout.
